Test results published in the RNAGym collection of RNA variant scans (doi:10.7554/elife.80360).

B1: HDV Ribozyme (parent)
chain: GGCCGGCAUGGUCCCAGCCUCCUCGCUGGCGCCGGCUGGGCAACAUUCCGAGGGGACCGUCCCCUCGGUAAUGGCGAAUGGGACCCA

Variants of: B1
Assay: self-cleavage, relative activity (ratio to wild type); higher = more cleavage; co-transcriptional

Variant	self-cleavage
C4U C14U	1.04
C4U C14A	0.519
C4G G74C	0.0386
C4G G74U	0.111
C4U C7G	0
C4U A77G	0.578
C4U C26U	0.764
C4G C19G	0.086
C4G G40C	0.128
C4G G40U	0.381
C4G A16G	0.453
C4U C13U	0.516
C4G C85U	0.306
C4G C85A	0.435
C4G A78G	0.0923
C4G G11A	0.104
C4G G11C	0
C4G G68A	0.309
C4G U12C	0.0665
C4G U12G	0.18
C4G U20G	0
C4G U20A	0.0536
C4G U46A	0.0573
C4G A77G	0.172

Variant	self-cleavage
C4A U72G	0.111
C4A U72A	0.0723
C4U A78G	0.375
C4U A78U	0.155
C4U C15U	0.731
C4U C15A	0.302
C4U C24G	0.0678
C4U C24A	0.0583
C4G C41A	0.162
C4G C41U	0.289
C4G G54C	0.213
C4G G39U	0.0346
C4G C86G	0.249
C4G C86A	0.554
C4G C48G	0.485
C4G C48U	0.306
C4G C48A	0.59
C4U C22G	0.111
C4G G55U	0.376
C4G G55C	0.185
C4G A8G	0.346
C4G G76A	0.343
C4G G76C	0.494
C4G C14A	0.0852

Variant	self-cleavage
C4G C14U	0.462
C4G C14G	0
C4G C44G	0.0449
C4G G34C	0.782
C4A U65G	0.26
C4A U65C	0.567
C4A U69G	0.285
C4U C18G	0.095
C4U C18A	0
C4U A71C	0.499
C4U A43U	0.332
C4U A43G	0
C4G A45U	0.161
C4G A45G	0.201
C4U A16C	0.434
C4U C19U	0.0665
C4U C19G	0.0268
C4U A51C	0.723
C4G U79C	0.13
C4G U79G	0
C4G U79A	0.0536
C4U C21U	0.0678
C4G G28U	0
C4G G28A	0

Variant	self-cleavage
C4G U60C	0.0875
C4G U60A	0.332
C4G U60G	0.213
C4G A70G	0.59
C4G G82U	0.0421
C4G C13G	0
C4G C13A	0.0277
C4G C13U	0.369
C4G G25A	0.0256
C4G G25C	0
C4U A42C	0.0475
C4U A42G	0.138
C4G G73U	0.086
C4G G10A	0.105
C4G C58G	0.289
C4G C58U	0.404
C4G C18U	0.0282
C4G U9G	0.293
C4G U9C	0.19
C4G A42G	0
C4G C63G	0.0396
C4G C63A	0.177
C4G C63U	0.249
C4U A83G	0.464

Variant	self-cleavage
C4G C62G	0.123
C4G C61U	0.475
C4G U27G	0.268
C4G U27C	0.0437
C4G U27A	0.222
C4G G29C	0
C4G C15A	0.142
C4G C15U	0.277
C4U A87C	0.708
C4G C33G	0.0583
C4G C33A	0
C4G C22A	0.142
C4G C22U	0.0449
C4G A71C	0.192
C4G A71G	0.277
C4G G31U	0.0282
C4G G31A	0.0639
C4G A43C	0.0519
C4G A43G	0
C4G C75U	0.0396
C4U C30U	0.332
C4G C26A	0.569
C4G C26G	0.306
C4A U79A	0.0739

Variant	self-cleavage
C4G C36A	0.0241
C4G U65A	0.525
C4G G35A	0
C4G G35C	0.13
C4U A70U	0.554
C4U A8C	0.443
C4G C64A	0.219
C4G C21A	0.0292
C4G C21U	0
C4G C49U	0.612
C4G C49G	0.504
C4G C57G	0.489
C4G C57A	0.374
C4G G6U	0.0237
C4G G6A	0
C4G U47C	0.346
C4G U23A	0.47
C4G U72A	0.0437
C4G U72G	0.0519
C4G U37G	0.0489
C4G U37A	0.0462
C4U A56C	0.522
C4U C32G	0
C4G C84G	0

Variant	self-cleavage
C4G C84U	0.249
C4G C66U	0.445
C4G C66A	0.369
C4G G38U	0.0287
C4G G38A	0
C4G G5A	0.0519
C4G G5U	0.0545
C4G U69A	0.192
C4G G59C	0.481
C4G G81C	0.0767
C4G G81U	0.0554
C4G C30A	0.0601
C4G A87G	0.0715
C4G A87C	0.373
C4G A83G	0.192
C4G A83U	0.136
C4G C24G	0.0426
C4G C24A	0.102
C4G A51C	0.458
C4G A51U	0.284
C4G G80U	0.0953
C4G G80C	0.0906
C4G G80A	0.0203
